Measured values as given in patent publication US20020146750A1 (published 2002).

Legend:
[1] = biological target: T1, MUC1 15-mer Ac-PDTRPAPGSTAPPAL-NH2; assay: SPR (BIAcore 2000), 1:1 Langmuir at steady state, 50 RU peptide; 15-mer surface; Fab
T1 construct: coated on a biotin chip
T1 peptide: Ac-PDTRPAPGSTAPPAL-NH2
Procedure: (§1) The selected PH1-IgG1 and the Fab PH1 antibodies were evaluated for their binding characteristics by surface plasmon resonance on a BIAcore 2000 apparatus (BIAcore AB, Uppsala, Sweden). A biotin chip was coated with a MUC1 15-mer, containing the minimal PH1 epitope, PAP (Ac-PDTRPAPGSTAPPAL-NH₂ (SEQ ID NO:40) (see Example 2, above), 50 RU and 320 RU) and 60-mer (NH₂-([…])₃-COOH (SEQ ID NO:8) (von Mensdorff-Pouilly et al., Tumor Biol., 19: 186-195 (1998), 50 RU) in HBS-EP buffer (Pharmacia) a surface, blocked with biotin (15 RU), was used as a negative control. The Fab PH1 and PH1-IgG1 were injected in HBS-EP buffer. To minimize rebinding of the antigen binding molecules, a speed of 30 μl/sec was used. Affinity calculation was performed with computer programs provided by BIAcore (BIAEvaluation-version3, BIACore AB). […] The affinity for the PH1 Fab antibody was calculated according to a 1:1 Langmuir stoichiometry at steady state (Chi²: 50.6). Because of the two binding places on the PH1-IgG1, the avidity was calculated as an apparent avidity constant using 1:1 Langmuir determination with mass transfer limitation (Chi²: 42).
(§2) The affinity of the antibody was determined using BIAcore. Affinities of the Fab PH1 were calculated to be an average of 1.4 μM for binding to the 15-mer and 60-mer MUC1 peptide antigen coated surfaces.

[2] = biological target: T1, MUC1 15-mer Ac-PDTRPAPGSTAPPAL-NH2; assay: SPR (BIAcore) Kd assay on MUC1 15-mer
Procedure: (§3) The selected PH1 and the affinity-matured antibodies were evaluated for affinity by surface plasmon resonance (SPR) on a BIAcore 2000 apparatus (BIAcore AB, Uppsala, Sweden). Channels of a biotin chip were coated with a MUC1 15-mer, containing the minimal PH1 epitope, PAP, (Ac-PDTRPAPGSTAPPAL-NH₂, (SEQ ID NO:40) 50 RU or 320 RU) or a 60-mer (NH₂-([…])₃-COOH (i.e., containing three copies of SEQ ID NO:8 (von Mensdorff-Pouilly et al., Tumor Biol., 19: 186-195 (1998), 50 RU) in HBS-EP buffer (Pharmacia). One surface was blocked with biotin (15 RU) and used as a negative control. The antibodies were injected in HBS-EP buffer. To minimize rebinding of the antigen binding fragments, the flow speed was 30 μl/sec. Affinity calculation was performed with the BIA-evaluation software provided by the BIAcore. The affinities of the Fabs were calculated according to a 1:1 stoichiometry at steady state.
(§4) The CDR3 variants were extensively tested in BIAcore for the kinetics of the MUC1 peptide interaction. […] Using this off-rate screening with Fabs in the periplasmic extract of E. coli cultures, the clones in Table 9 as well as many more were screened for improvement in off-rate. […] To get accurate measurements, a Kd assay on the BIAcore was used with the MUC1 15-mer (there was no difference in the kinetics of interaction when the MUC1 60-mer was used, data not shown). […]

[3] = biological target: T2, MUC1 60-mer peptide NH2-(…)3-COOH (biotinylated in the ELISAs and selections); assay: SPR (BIAcore), MUC1 60-mer peptide antigen; the 3.5-fold end is tied to 5C8 by paragraph 206; best variant, 5C8; Fab on MUC1 peptide chip
T2 construct: also called biotinylated MUC1 60-mer
Procedure: as §3, §4

[4] = biological target: T2, MUC1 60-mer peptide NH2-(…)3-COOH; assay: phage ELISA on MUC1 antigen (biotinylated MUC1 60-mer)
[5] = biological target: T1, MUC1 15-mer Ac-PDTRPAPGSTAPPAL-NH2; assay: SPR (BIAcore 2000), apparent avidity constant, 1:1 Langmuir with mass transfer limitation, low density surface; 15-mer, low density surface; IgG1 avidity
Procedure: as §1, §2

[6] = biological target: T2, MUC1 60-mer peptide NH2-(…)3-COOH; assay: ELISA, soluble Fab, biotinylated MUC1 60-mer; relative signal
Procedure: as §3, with “Soluble Fabs were produced as described (Roovers et al., Br. J. Cancer, 78: 1407-16 (1998)). ELISAs were performed as described by Henderikx et al. (Cancer Res., 58: 4324-4332 (1998)), except the biotinylated MUC1 60-mer was used. The selected” for “The selected”

B1: PH1 Fab antibody (Fab, V domains shown)
VH: QVQLVQSGGGLVQPGGSLRLSCAASGFTFRSNAMGWVRQAPGKGLEWVSGISGSGGSTYYADSVKGRFTISRDNSKNTLYLQMNSLRAEDTAVYYCAKHTGGGVWDPIDYWGQGTLVTVSS
VL: EIVLTQSPLSLPVTPGEPASISCRSSQSLLHSNGYTYLDWYLQKPGQSPQLLIYSGSHRASGVPDRFSGSVSGTDFTLRISRVEAEDVGVYYCMQGLQSPFTFGPGTKVDIKR
notes: Human Fab from a naive phage library; also called Fab PH1; WT-PH1
[1]
  Kd: 1400 nM

B2: 5C8 (Fab, V domains shown)
VH: QVQLVQSGGGLVQPGGSLRLSCAASGFTFRSNAMGWVRQAPGKGLEWVSGISGSGGSTYYADSVKGRFTISRDNSKNTLYLQMNSLRAEDTAVYYCAKHTGRGVWDPIGYWGQGTLVTVSS
VL: EIVLTQSPLSLPVTPGEPASISCRSSQSLLHSNGYTYLDWYLQKPGQSPQLLIYSGSHRASGVPDRFSGSVSGTDFTLRISRVEAEDVGVYYCMQGLQSPFTFGPGTKVDIKR
notes: PH1 Fab variant; also called clone 5C8
[2]
  fold improvement of Kd over wild type PH1 Fab: 3.5 fold
[3]
  Kd: ~400 nM

B3: clone 20 (unselected SPIKE library) (Fab, V domains shown)
VH: QVQLVQSGGGLVQPGGSLRLSCAASGFTFRSNAMGWVRQAPGKGLEWVSGISGSGGSTYYADSVKGRFTISRDNSKNTLYLQMNSLRAEDTAVYYCASHTGGRGWDPIDYWGQGTLVTVSS
VL: EIVLTQSPLSLPVTPGEPASISCRSSQSLLHSNGYTYLDWYLQKPGQSPQLLIYSGSHRASGVPDRFSGSVSGTDFTLRISRVEAEDVGVYYCMQGLQSPFTFGPGTKVDIKR
[4]
  ELISA OD450: 0.109 OD450

B4: clone 21 (unselected SPIKE library) (Fab, V domains shown)
VH: QVQLVQSGGGLVQPGGSLRLSCAASGFTFRSNAMGWVRQAPGKGLEWVSGISGSGGSTYYADSVKGRFTISRDNSKNTLYLQMNSLRAEDTAVYYCANQTGGGVWDPIDYWGQGTLVTVSS
VL: EIVLTQSPLSLPVTPGEPASISCRSSQSLLHSNGYTYLDWYLQKPGQSPQLLIYSGSHRASGVPDRFSGSVSGTDFTLRISRVEAEDVGVYYCMQGLQSPFTFGPGTKVDIKR
[4]
  ELISA OD450: 0.108 OD450

B5: clone 22 (unselected SPIKE library) (Fab, V domains shown)
VH: QVQLVQSGGGLVQPGGSLRLSCAASGFTFRSNAMGWVRQAPGKGLEWVSGISGSGGSTYYADSVKGRFTISRDNSKNTLYLQMNSLRAEDTAVYYCARHTGGGVWDPIYYWGQGTLVTVSS
VL: EIVLTQSPLSLPVTPGEPASISCRSSQSLLHSNGYTYLDWYLQKPGQSPQLLIYSGSHRASGVPDRFSGSVSGTDFTLRISRVEAEDVGVYYCMQGLQSPFTFGPGTKVDIKR
[4]
  ELISA OD450: 0.663 OD450

B6: clone 23 (unselected SPIKE library) (Fab, V domains shown)
VH: QVQLVQSGGGLVQPGGSLRLSCAASGFTFRSNAMGWVRQAPGKGLEWVSGISGSGGSTYYADSVKGRFTISRDNSKNTLYLQMNSLRAEDTAVYYCAKPTGGGAWDPIDYWGQGTLVTVSS
VL: EIVLTQSPLSLPVTPGEPASISCRSSQSLLHSNGYTYLDWYLQKPGQSPQLLIYSGSHRASGVPDRFSGSVSGTDFTLRISRVEAEDVGVYYCMQGLQSPFTFGPGTKVDIKR
[4]
  ELISA OD450: 0.373 OD450

B7: clone 25 (unselected SPIKE library) (Fab, V domains shown)
VH: QVQLVQSGGGLVQPGGSLRLSCAASGFTFRSNAMGWVRQAPGKGLEWVSGISGSGGSTYYADSVKGRFTISRDNSKNTLYLQMNSLRAEDTAVYYCAKHTGVGVWHPIYYWGQGTLVTVSS
VL: EIVLTQSPLSLPVTPGEPASISCRSSQSLLHSNGYTYLDWYLQKPGQSPQLLIYSGSHRASGVPDRFSGSVSGTDFTLRISRVEAEDVGVYYCMQGLQSPFTFGPGTKVDIKR
[4]
  ELISA OD450: 0.315 OD450

B8: PH1-IgG1 (antibody, V domains shown)
VH: QVQLVQSGGGLVQPGGSLRLSCAASGFTFRSNAMGWVRQAPGKGLEWVSGISGSGGSTYYADSVKGRFTISRDNSKNTLYLQMNSLRAEDTAVYYCAKHTGGGVWDPIDYWGQGTLVTVSS
VL: EIVLTQSPLSLPVTPGEPASISCRSSQSLLHSNGYTYLDWYLQKPGQSPQLLIYSGSHRASGVPDRFSGSVSGTDFTLRISRVEAEDVGVYYCMQGLQSPFTFGPGTKVDIKR
notes: Fully human gamma-1/kappa IgG1 from CHO-K1 clone 7F; FITC-labeled or biotinylated in some assays; also called recombinant human MUC1-specific IgG1; PH1-IgG1-FITC
[5]
  Kd: 8.3 nM

B9: 7F9 (Fab, V domains shown)
VH: QVQLVQSGGGLVQPGGSLRLSCAASGFTFRSNAMGWVRQAPGKGLEWVSGISGSGGSTYYADSVKGRFTISRDNSKNTLYLQMNSLRAEDTAVYYCAKHTGGGVWDPIGYWGQGTLVTVSS
VL: EIVLTQSPLSLPVTPGEPASISCRSSQSLLHSNGYTYLDWYLQKPGQSPQLLIYSGSHRASGVPDRFSGSVSGTDFTLRISRVEAEDVGVYYCMQGLQSPFTFGPGTKVDIKR
notes: PH1 Fab variant; also called clone 7F9
[2]
  fold improvement of affinity over wild type PH1 Fab: < 2 fold
[6]
  binding result: binds
